Positions count from the first letter of the chain named.
T1: CD7-Fc recombinant protein (human, UniProt P09564 26-180)
T1 construct: also called CD7-Fc protein; human CD7-Fc
T1 sequence (looked up): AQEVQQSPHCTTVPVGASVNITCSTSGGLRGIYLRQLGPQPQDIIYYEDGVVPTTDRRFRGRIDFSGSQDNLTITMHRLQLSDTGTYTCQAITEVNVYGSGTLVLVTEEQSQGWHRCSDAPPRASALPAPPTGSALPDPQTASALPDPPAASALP

B1: anti-CD7 scFv-H8 antibody (scFv, V domains shown)
VH: QVQLQESGAGLLKPSETLSLTCAVYGGSISGYYWSWIRQPPGKGLEWIGEINHSGSTNYNPSLKSRVTISVDTSKNQFSLKLSSVTAADTAVYYCARGGGSSGYYLDYWGQGALVTVSS
VL: QSVLTQPPSVSEAPRQRVTISCSGSSSNIGNNAVNWYQQLPGKAPKLLIYYDDLLPSGVSDRFSGSKSGTSASLTISGLQSEDGADYYCASWDDSLNGRVFGGGTKLTVL
notes: Fully human scFv from the phage library
B2: anti-CD7 scFv-H10 antibody (scFv, V domains shown)
VH: QLQLQESGGGLVQPGGSLRLSCAASGFTFSSYAMSWVRQAPGKGLEWVSAISGSGGSTYYADSVKGRFTISRDNSKNTLYLQMNSLRAEDTAVYYCAKGYSGYPAVLDYWGQGTLVTVSS
VL: QSALTQPASVSGSPGQSITISCTGTSSDVGGSKYVSWYQQHPGKAPKLMIYDVSYRPSGVSDRFSGSKSGNTASLTISGLQAEDEADYYCSSYTSNSNLPLFGGGTKVTVL
notes: Fully human scFv from the phage library; also called anti-CD7 CAR-H10
B3: anti-CD7 scFv-H7 antibody (scFv, V domains shown)
VH: EVQLVESGGGLIQPGGSLRLSCAASGFTVSSNYMSWVRQAPGKGLEWVSVIYSGGSTYYADSVKGRFTISRDNSKNTLYLQMNSLRAEDTAVYYCATDYGELHDAFDIWGQGTTVTVSS
VL: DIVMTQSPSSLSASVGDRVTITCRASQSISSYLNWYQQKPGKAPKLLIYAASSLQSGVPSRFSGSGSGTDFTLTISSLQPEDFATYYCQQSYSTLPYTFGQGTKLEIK
notes: Fully human scFv from the phage library; also called anti-CD7 CAR-H7
B4: anti-CD7 scFv-H6 antibody (scFv, V domains shown)
VH: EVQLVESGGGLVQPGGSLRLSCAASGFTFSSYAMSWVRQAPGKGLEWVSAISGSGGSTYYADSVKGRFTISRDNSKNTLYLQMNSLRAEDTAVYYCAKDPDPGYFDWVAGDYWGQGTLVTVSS
VL: QSALTQPPSASGSPGQSVTISCTGTSSDVGGYNYVSWYQQHPGKAPKLMIYEVRKRPSGVPDRFSGSKSGNTASLTVSGLQADDEADYYCSSYAGSNNLGFGGGTKLTVL
notes: as for B1
B5: anti-CD7 scFv-H18 antibody (scFv, V domains shown)
VH: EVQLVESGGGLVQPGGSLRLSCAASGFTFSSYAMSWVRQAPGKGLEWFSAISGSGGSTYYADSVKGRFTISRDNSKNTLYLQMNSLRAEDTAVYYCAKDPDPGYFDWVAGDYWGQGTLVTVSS
VL: B4 VL with N33T, R54S, D83E, L99V, G100V, K106E
notes: as for B1
B6: anti-CD7 scFv-H4 antibody (scFv, V domains shown)
VH: QVQLVQSGGGLVQPGGSLRLSCAASGFTFSTYWMSWVRQAPGKGLEWVANINQDGTEKYYVDSVKGRFTISRDNAKNSLYLQMNSLRAEDTAVYYCAREPGIALDYWGQGTLVTVSS
VL: QSVVTQPPSVSAAPGQKVTISCSGSSSNIGNNYVSWYQQLPGTAPKLLIYDNNKRPSGIPDRFSGSKSGTSATLGITGLQTGDEADYYCGTWDSSLSAGDWVFGGGTKLTVL
notes: as for B1
B7: anti-CD7 scFv-H13 antibody (scFv, V domains shown)
VH: QVQLVQSGAEVKKPGSSVKVSCKASGGTFSSYAISWVRQAPGQGLEWMGGIIPIFGTANYAQKFQGRVTITADESTSTAYMELSSLRSEDTAVYYCARDQGVVPAAEIPYYDFWSGPPFDPWGQGTLVTVSS
VL: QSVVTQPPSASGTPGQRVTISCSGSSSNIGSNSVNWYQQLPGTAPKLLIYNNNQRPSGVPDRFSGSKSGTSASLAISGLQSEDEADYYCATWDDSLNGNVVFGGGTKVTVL
notes: as for B1
B8: anti-CD7 scFv-H5 antibody (scFv, V domains shown)
VH: QVQLVQSGAEVKKPGESLRISCKGSGYSFTSYWISWVRQMPGKGLEWMGRIDPSDSYTNYSPSFQGHVTISADKSISTAYLQWSSLKASDTAMYYCARHPVTNYYYYGMDVWGQGTTVTVSS
VL: DIRLTQSPSTVSASIGDRVTITCRASQGISNWLTWYQQKPGKAPKLLIYSASTLQSGVPSRFSGSGSGTDFTLTISSLQPEDFATYYCQQANNLRTLTFGGGTKVDIK
notes: as for B1
B9: anti-CD7 scFv-H9 antibody (scFv, V domains shown)
VH: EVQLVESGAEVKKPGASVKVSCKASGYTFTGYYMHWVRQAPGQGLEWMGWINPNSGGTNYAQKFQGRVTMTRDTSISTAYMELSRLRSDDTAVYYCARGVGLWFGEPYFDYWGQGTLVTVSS
VL: QSVLTQPPSASGAPGERVTISCSGSSSNIGSNYVYWYQQLPGTAPKLLIYNSNQRPSGVPDRFSGSKSGASASLAISGLRSEDEADYYCAAWDDSLSGPVFGGGTKVTVL
notes: Fully human scFv from the phage library; also called anti-CD7 CAR-H9
B10: anti-CD7 scFv-H12 antibody (scFv, V domains shown)
VH: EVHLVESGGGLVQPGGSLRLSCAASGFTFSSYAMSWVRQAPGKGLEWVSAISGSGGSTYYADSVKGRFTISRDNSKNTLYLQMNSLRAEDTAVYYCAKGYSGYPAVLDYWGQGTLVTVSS
VL: QPVLTQPPSASGTPGQRVIISCSGSGSNIGSNTVTWYRQFPGAAPKTLIYNSKLRPSWVPDRFTASKSGTSASLAISGLQSEDEADYYCAAWDDSLNGVVFGGGTKLTVL
notes: as for B1
B11: anti-CD7 scFv-H15 antibody (scFv, V domains shown)
VH: EVQLVQSGAEVKKPGASVKVSCKVSGYTLTELSMHWVRQAPGKGLEWMGGFDPEDGETIYAQKFQGRVTMTEDTSTDTAYMELSSLRSEDTAVYYCATERASGSYEYYFDYWGQGTLVTVSS
VL: AIQLTQSPSSVSASVGDRVTITCRASQGISSWLAWYQQKPGKAPKLLIYAASSLQSGVPSRFSGSGSGTDFTLTISSLQPEDFATYYCQQANSFPYTFGQGTKVEIK
notes: as for B1

What was measured:
[1] = target: T1, CD7-Fc recombinant protein; assay: flow cytometry, CAR-T cells stained with CD7-Fc protein
[2] = target: T1, CD7-Fc recombinant protein; assay: flow cytometry, CAR-T cells stained with CD7-Fc protein (FIG. 4)

Binder | binding result [1] | binding result [2]
B1 | binds | –
B2 | binds | –
B3 | binds | –
B4 | binds | –
B5 | – | binds
B6 | binds | –
B7 | – | binds
B8 | binds | –
B9 | binds | –
B10 | binds | –
B11 | – | binds

Source: patent US20250161358A1 (UTC THERAPEUTICS SHANGHAI, published 2025)
